# Experimental data: patent US20130079246A1 (ADDEX PHARMA SA, priority 2010, published 2013)
# What was measured:
# [1] = biological target: T1, chimeric TNFR1-PDGFR receptor (full length human TNFR1 fused to cytoplasmic domain of mouse PDGFR) (Homo sapiens, UniProt P19438); assay: Ca2+-dependent aequorin luminescence in HEK293T Aequorin cells expressing the chimeric receptor (HTS setting); type: cell-based
# T1 construct: 1, 2; full length; cytoplasmic domain (cp); expressed in transfected cells; host or cells: HEK293T cells stably expressing apoaequorin
# Source text: HEK293T stably expressing Apoaequorin were generated using standard cloning techniques. The HEK293T cells expressing Apoaequorin (“Aequorin cells”) were then further transfected as described in Examples 1-3 so as to express the chimeric receptors 1-3 as listed in Table 3.
# In particular, the HEK293T Apoaequorin cells were transfected with pcDNA3.1 hygro TNFR1-fl-PDGFR-cd vector as prepared in Example 1 using Optifect™ Transfection Reagent (Invitrogen), according to the manufacturer's protocol.
# HEK293T cells expressing Apoaequorin and the chimeric receptor (Example 4) were plated in 384-well plates at a concentration of 12500 cells per well in a final volume of 50 μl. […] A FDSS7000 reader from Hamamatsu (Japan) was used to examine intracellular calcium levels. […] The instrument features include detection with a camera of fluorescence or luminescence and automatically converts fluorescence or luminescence signals into numeric data. This digital data is then used to determine the concentration of calcium inside the analyzed cells. The information is automatically analyzed in terms of a positive, negative or null effect of each test compound being examined. This system allowed differences between untreated and treated cells to be measured, for example by measuring the calcium flux in cells. […]
# [2] = biological target: chimeric receptor: full length human TNFR1 fused to the cytoplasmic tyrosine kinase domain of mouse PDGFR (human TNFR1; mouse PDGFR); assay: cell-based or functional assay
# Chain of chimeric receptor: full length human TNFR1 fused to the cytoplasmic tyrosine kinase domain of mouse PDGFR (human TNFR1; mouse PDGFR) (chain, as listed by the source mutant limits assumed): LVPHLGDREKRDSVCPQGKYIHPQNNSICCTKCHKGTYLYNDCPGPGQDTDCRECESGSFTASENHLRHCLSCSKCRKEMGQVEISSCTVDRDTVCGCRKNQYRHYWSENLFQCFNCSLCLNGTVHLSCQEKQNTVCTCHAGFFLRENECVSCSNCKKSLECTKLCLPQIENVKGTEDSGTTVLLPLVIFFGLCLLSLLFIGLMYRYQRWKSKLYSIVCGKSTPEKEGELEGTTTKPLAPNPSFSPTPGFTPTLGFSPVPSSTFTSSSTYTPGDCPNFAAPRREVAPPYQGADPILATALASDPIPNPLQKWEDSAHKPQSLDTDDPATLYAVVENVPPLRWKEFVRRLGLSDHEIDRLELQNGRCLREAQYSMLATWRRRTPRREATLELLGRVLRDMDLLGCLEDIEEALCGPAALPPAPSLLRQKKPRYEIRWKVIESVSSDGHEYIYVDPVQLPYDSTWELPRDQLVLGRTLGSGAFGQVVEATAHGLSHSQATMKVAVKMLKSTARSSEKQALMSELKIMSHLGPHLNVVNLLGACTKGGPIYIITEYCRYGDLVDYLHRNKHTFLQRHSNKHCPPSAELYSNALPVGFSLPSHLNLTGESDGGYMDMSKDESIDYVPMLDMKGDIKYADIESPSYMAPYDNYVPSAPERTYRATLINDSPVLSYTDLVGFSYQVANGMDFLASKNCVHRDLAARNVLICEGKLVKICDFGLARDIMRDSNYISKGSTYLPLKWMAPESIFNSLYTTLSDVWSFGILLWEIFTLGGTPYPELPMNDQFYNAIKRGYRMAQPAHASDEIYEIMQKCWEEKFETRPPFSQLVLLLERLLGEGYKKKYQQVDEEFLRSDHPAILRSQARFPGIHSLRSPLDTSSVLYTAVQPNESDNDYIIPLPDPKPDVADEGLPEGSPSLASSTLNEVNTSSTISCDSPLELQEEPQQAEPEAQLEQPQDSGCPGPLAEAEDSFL
# Chain of TNF (ligand) (P01375 77-233): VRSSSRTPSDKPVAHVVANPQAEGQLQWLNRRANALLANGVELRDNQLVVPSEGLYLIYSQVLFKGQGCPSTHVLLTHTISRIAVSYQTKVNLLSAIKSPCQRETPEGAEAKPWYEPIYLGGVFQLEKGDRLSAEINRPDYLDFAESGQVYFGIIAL
# T1 sequence (P19438 with tags, fused parts or gaps): as the sequence (chain, as listed by the source mutant limits assumed) above
Molecule,"Effect on TNF-dependent intracellular calcium increase ([1]; 1 μM inhibitor, 3 ng/ml TNF, FIG. 5b)","Inhibitory efficacy, dose response compared with cells expressing full-length PDGFR ([1]; inhibitor 3 μM to 0.45 nM, cells exposed to TNF, FIG. 6)","EC50, Ca2+-dependent aequorin luminescence, AUC over 10 minutes [2] [ng/mL]","EC50, Ca2+-dependent aequorin luminescence, Max-Min [2] [ng/mL]","EC80, Ca2+-dependent aequorin luminescence, AUC over 10 minutes [2] [ng/mL]","EC80, Ca2+-dependent aequorin luminescence, Max-Min [2] [ng/mL]"
"COc1cc2ncnc(N3CCN(C(=O)Nc4ccc(Oc5ccccc5)cc4)CC3)c2cc1OC [PDGFR Tyrosine Kinase Inhibitor III, 4-(6,7-Dimethoxy-4-quinazolinyl)-N-(4-phenoxyphenyl)-1-piperazinecarboxamide]",prevented the detection of intracellular calcium increase,equal inhibitory efficacy,,,,
TNF (ligand),,,1.27,1.06,2.9,3
